Laboratory results published in patent US20030158389A1 (Genentech, published 2003).

T1: FcγRIIa α subunit ECD-6His-GST fusion protein (UniProt P12318 34-217)
T1 construct: not shown: glutathione S transferase (GST)
T1 sequence: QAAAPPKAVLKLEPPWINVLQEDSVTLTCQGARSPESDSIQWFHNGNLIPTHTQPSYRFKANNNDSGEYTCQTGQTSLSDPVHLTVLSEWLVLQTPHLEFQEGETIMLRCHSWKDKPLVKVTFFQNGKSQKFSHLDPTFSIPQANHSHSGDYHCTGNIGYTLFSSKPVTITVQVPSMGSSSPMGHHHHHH

T2: FcγRIIb α subunit ECD-6His-GST fusion protein (UniProt P31994 43-217)
T2 construct: not shown: glutathione S transferase (GST)
T2 sequence: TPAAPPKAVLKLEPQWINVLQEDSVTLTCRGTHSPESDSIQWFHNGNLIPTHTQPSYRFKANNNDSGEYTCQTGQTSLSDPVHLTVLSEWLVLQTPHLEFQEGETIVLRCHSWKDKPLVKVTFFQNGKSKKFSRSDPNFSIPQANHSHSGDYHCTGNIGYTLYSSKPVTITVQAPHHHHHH

B1: E27 anti-IgE antibody, wild type (humanized IgG1) (antibody)
heavy: not shown
light: DIQLTQSPSSLSASVGDRVTITCRASKPVDGEGDSYMNWYQQKPGKAPKLLIYAASYLESGVPSRFSGSGSGTDFTLTISSLQPEDFATYYCQQSHEDPYTFGQGTKVEIKRTVAAPSVFIFPPSDEQLKSGTASVVCLLNNFYPREAKVQWKVDNALQSGNSQESVTEQDSKDSTYSLSSTLTLSKADYEKHKVYACEVTHQGLSSPVTKSFNRGEC
notes: In the FcγRII and FcγRIII ELISAs it stood as an immune complex E27:chimeric IgE:VEGF (1:1:2); also called wt; recombinant anti-IgE E27
B2: E27 anti-IgE antibody mutant E318A (antibody)
heavy: not shown
light: B1 light
notes: also called E318A (E27 background)
B3: E27 anti-IgE antibody mutant K320A (antibody)
heavy: not shown
light: B1 light
notes: also called K320A (E27 background)
B4: E27 anti-IgE antibody mutant K322A (antibody)
heavy: not shown
light: B1 light
notes: also called K322A (E27 background)
B5: E27 anti-IgE antibody mutant P329A (antibody)
heavy: not shown
light: B1 light
notes: also called P329A (E27 background)
B6: E27 anti-IgE antibody mutant P331A (antibody)
heavy: not shown
light: B1 light
notes: also called P331A (E27 background)

biological target: T3, FcγRI α subunit-GST fusion (UniProt P12314 16-292); test: ELISA, monomeric IgG on coated FcγRI α subunit-GST
T3 construct: not shown: glutathione S transferase (GST)
T3 sequence (P12314 other isoform, or with tags, fused parts or gaps, form in doubt): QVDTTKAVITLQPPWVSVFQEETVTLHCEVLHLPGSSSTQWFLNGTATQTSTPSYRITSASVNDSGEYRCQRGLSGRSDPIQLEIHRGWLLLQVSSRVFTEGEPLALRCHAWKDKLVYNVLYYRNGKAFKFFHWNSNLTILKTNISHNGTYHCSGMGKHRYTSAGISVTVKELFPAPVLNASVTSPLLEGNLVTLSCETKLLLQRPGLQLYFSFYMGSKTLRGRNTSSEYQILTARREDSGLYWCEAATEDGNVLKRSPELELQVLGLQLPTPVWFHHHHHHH

Row | binding as percentage of the wild type | Binder
1 | 100% | B1
2 | 93% | B2
3 | 102% | B3
4 | 90% | B4
5 | 104% | B5
6 | 74% | B6

biological target: T1, FcγRIIa α subunit ECD-6His-GST fusion …; test: ELISA, E27:chimeric IgE:VEGF immune complex on coated receptor ECD-6His-GST

Row | binding as percentage of the wild type | Binder
7 | 100% | B1
8 | 113% | B2
9 | 94% | B3
10 | 109% | B4
11 | 111% | B5
12 | 86% | B6

biological target: T2, FcγRIIb α subunit ECD-6His-GST fusion …; test: as above

Row | binding as percentage of the wild type | Binder
13 | 100% | B1
14 | 106% | B2
15 | 83% | B3
16 | 101% | B4
17 | 96% | B5
18 | 58% | B6

biological target: T4, FcγRIIIa α subunit ECD-6His-GST fusion protein (UniProt P08637 17-208); test: as above
T4 construct: not shown: glutathione S transferase (GST)
T4 sequence (P08637 other isoform, or with tags, fused parts or gaps, form in doubt): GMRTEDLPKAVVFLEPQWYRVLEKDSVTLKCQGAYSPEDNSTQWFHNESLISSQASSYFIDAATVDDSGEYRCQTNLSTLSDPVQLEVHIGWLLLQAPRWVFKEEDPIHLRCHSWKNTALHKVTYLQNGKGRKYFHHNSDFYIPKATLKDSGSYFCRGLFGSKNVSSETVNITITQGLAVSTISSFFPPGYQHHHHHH

Row | binding as percentage of the wild type | Binder
19 | 100% | B1
20 | 104% | B2
21 | 72% | B3
22 | 90% | B4
23 | 85% | B5
24 | 73% | B6
